This is an account of results in patent US20190352408A1 (US Dept. of Health and Human Services, published 2019).

In experiment [1] the target is T1, recombinant soluble FLT3 (human, UniProt P36888 27-541, limits assumed).
T1 construct: For the ELISA it says only 'recombinant soluble FLT3'; also called soluble recombinant FLT3; Fms-like tyrosine kinase 3
T1 sequence (looked up): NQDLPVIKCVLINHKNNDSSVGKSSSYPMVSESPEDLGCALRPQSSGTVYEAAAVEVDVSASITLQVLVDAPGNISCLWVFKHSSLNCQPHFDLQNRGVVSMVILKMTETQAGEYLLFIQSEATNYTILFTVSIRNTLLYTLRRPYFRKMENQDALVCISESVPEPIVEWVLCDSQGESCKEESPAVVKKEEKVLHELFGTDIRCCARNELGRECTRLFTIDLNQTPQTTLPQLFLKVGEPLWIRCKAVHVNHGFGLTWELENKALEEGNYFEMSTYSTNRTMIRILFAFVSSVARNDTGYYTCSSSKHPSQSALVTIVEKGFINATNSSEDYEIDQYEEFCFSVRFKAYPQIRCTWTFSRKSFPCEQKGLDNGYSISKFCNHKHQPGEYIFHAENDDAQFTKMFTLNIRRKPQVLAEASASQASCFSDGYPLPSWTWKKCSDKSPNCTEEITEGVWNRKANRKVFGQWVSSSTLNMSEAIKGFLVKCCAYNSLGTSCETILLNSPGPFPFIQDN
Nature of the experiment: ELISA on recombinant soluble FLT3 (FIG. 1B). (ELISA stands for enzyme-linked immunosorbent assay.)

Experiment [2] concerns the target T2, cell-surface FLT3 (UniProt P36888 27-993, limits assumed).
T2 construct: whole, on cells; also called FLT3 on FLT3-positive RS4; 11 cells
T2 sequence (looked up): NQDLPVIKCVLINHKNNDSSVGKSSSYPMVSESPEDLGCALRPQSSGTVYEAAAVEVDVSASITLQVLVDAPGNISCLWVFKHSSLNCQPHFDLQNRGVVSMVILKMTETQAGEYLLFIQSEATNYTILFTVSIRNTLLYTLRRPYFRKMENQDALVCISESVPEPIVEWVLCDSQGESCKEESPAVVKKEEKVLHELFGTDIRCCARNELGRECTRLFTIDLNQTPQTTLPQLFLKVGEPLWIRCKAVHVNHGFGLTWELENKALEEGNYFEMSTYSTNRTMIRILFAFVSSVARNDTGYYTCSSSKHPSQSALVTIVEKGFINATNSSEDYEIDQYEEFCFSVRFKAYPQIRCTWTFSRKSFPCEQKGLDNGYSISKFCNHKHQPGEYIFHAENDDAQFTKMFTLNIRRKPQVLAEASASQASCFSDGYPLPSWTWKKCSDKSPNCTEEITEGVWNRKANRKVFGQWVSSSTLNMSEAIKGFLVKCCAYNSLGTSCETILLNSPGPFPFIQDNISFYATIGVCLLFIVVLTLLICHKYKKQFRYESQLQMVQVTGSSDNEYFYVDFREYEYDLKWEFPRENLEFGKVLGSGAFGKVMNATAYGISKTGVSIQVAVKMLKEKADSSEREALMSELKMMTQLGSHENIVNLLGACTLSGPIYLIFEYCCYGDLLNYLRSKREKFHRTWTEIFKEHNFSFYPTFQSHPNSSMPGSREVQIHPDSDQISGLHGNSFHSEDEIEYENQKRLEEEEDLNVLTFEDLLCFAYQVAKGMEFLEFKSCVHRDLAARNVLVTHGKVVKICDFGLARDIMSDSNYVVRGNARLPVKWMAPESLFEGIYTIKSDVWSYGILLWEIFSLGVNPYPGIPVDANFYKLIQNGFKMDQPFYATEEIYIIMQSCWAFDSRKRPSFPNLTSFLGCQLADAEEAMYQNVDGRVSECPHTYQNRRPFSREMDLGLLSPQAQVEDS
The experiment can be described thus: flow cytometry on RS4;11 cells, anti-His-PE detection.

In experiment [3] the target is T1, recombinant soluble FLT3. The experiment can be described thus: ELISA on recombinant soluble FLT3 (FIG. 1C).
Experiment [4] concerns the target T1, recombinant soluble FLT3. Nature of the experiment: ELISA on recombinant soluble FLT3 (FIG. 1A).

Numbering of substitutions follows the chain as printed.

B1: m1009 (scFv)
scFv: EVQLVQSGGGLVQPGGSLRLSCAASGFTFSSYAMSWVRQAPGKGLEWVSGISWNSGSIGYADSVKGRFTISRDNAKNSLYLQMNSLRAEDTALYYCAKVGGGGAFDIWGQGTMVTVSSGGGGSGGGGSGGGGSQSVLTQPPSVSAAPGQKVTISCSGSSSSIGDNYVSWYQQVPGTAPKLLIYGNNKRPSGIPDRLSGSKSGTSATLGITGLQTGDEADYYCGTWDNSLGGVFGGGTKLTVL
notes: Fully human; isolated from a phage display scFv library; Detected with anti-His-PE
Regarding B1, the binding result in experiment [1] and in experiment [2] was “binds” throughout.

B2: m1012 (VHH)
VHH: EVQLVESGGGLVQPGGSLRLSCAASRFYFSGYEMSWVRQAPGKGLEWVSAISGSGGSTYYADSVKGRFTISRDNSKNTLYLQMNSLRAEDTAVYYCARRVVGAKLYFQHWGQGTLVTVSS
notes: Human VH single-domain antibody (not camelid) from a phage display VH domain library; Detected with anti-His-PE; also called single-domain antibody m1012
As to B2, the binding result in experiment [3] and in experiment [2] was “binds” in each case.

B3: m1008 (scFv)
scFv: QVQLQESGPGLVKPSQTLSLTCTVSGGSISSSGYYWSWVRQSPGKGLEWIGEIYQSGNTNYNPSLKSRVTISVDKPKNQLSLKLGSVTAADTAVYYCARGGSYYDYWGQGTLVTVSSGGGGSGGGGSGGGGSQSVVTQPPSVSAAPGQKVTISCSGSNSNIGNNYVSWYQQLPGTAPKVLIYDNNVRPSGIPDRFSGSKSGTSATLGITGLQTGDEADYYCETWDSSLNVGMFGGGTQLIVL
notes: as for B1
On to B3, for which the binding result in experiment [1] and in experiment [2] was “binds” in each case.

B4: m1006 (antibody, V domains shown)
VH: EVQLVESGGGLVQPGGSLRLSCAASGFTFSSYGMHWVRQAPGKGLEWVAVISYDGSNKYYADSVKGRFTISRDNSKNTLYLQMNSLRAEDTAVYYCANLAPWAAYWGQGTLVTVSS
VL: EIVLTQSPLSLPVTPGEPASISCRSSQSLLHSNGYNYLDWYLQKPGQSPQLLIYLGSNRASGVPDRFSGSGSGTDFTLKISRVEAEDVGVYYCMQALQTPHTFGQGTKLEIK
notes: Fully human; isolated from a phage display Fab library
As to B4, the binding result in experiment [4] and in experiment [2] was “binds” throughout.

B5: m1007 (antibody, V domains shown)
VH: B4 VH with L11V
VL: not shown
notes: as for B4
For the molecule B5, the binding result in experiment [4] and in experiment [2] was “binds” each time.
